# Experimental data as given in patent publication US20220119450A1 (UNIVERSITY OF TARTU, published 2022).
# No end group written: not given here. FAM = 5(6)-carboxyfluorescein; Ahx = NCCCCCC(=O)O
# T1: recombinant His-tagged tenascin-C C domain (TNC-C)
# T1 construct: 112 amino acids, expressed in E. coli from pET28a+ with N-terminal His-tag
# T1 chain: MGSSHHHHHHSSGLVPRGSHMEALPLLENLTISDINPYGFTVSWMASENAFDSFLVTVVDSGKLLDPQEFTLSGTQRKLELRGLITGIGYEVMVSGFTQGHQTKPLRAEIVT
# Biological target: T1, recombinant His-tagged tenascin-C C …
# Experiment: ELISA: immobilized FAM-PL1 probed with His-tagged protein, anti-His-tag antibody, HRP
# Procedure: (§1) The FAM-labeled peptides were coated on ELISA plates (Nunc Maxisorp, Thermo Fisher Scientific Inc., MA, USA), blocked with PBS containing 1% BSA, and incubated with recombinant proteins at 2 μg/well in PBS for 6 h. The protein was detected using an anti-His-tag antibody, followed by horseradish peroxidase-conjugated secondary antibody, chromogenic reaction, and measurement of absorbance at 450 nm with a microplate reader (Tecan Austria GmbH, Grödig, Austria).
# (§2) Immobilized FAM-PL1 was probed with recombinant His-tagged EDB and TNC-C (or control BSA), followed by sequential incubation with rabbit anti-His-tag primary antibody, secondary goat anti-rabbit HRP antibody and a chromogenic peroxidase reaction.
row,Binder,binding result
1,{FAM-Ahx}-PPRRGLIKLKTS-OH (Immobilized on ELISA plate and probed with His-tagged recombinant proteins; also called FAM-PL1) [synthetic FAM-labeled PL1 peptide],binds

# Biological target: T2, recombinant His-tagged fibronectin extra domain B (FN-EDB)
# T2 construct: 112 amino acids, expressed in E. coli from pET28a+ with N-terminal His-tag; also called fibronectin EDB-domain
# Experiment: as above
# Procedure: as §1, §2
row,Binder,binding result
1,{FAM-Ahx}-PPRRGLIKLKTS-OH (Immobilized on ELISA plate and probed with His-tagged recombinant proteins; also called FAM-PL1) [synthetic FAM-labeled PL1 peptide],binds

# Biological target: T1, recombinant His-tagged tenascin-C C …
# Experiment: T7 peptide phage binding to recombinant TNC-C, fold over control heptaglycine phage
# Procedure: Throughout our screens, the phage recovered during a round of selection was amplified using plate amplification protocol (Teesalu et al., 2012). The 1st and 4th round of biopanning were performed on TNC-C immobilized on Costar 96-Well ELISA plate (#3590, Corning Life Sciences, Tewksbury, Mass., USA). Briefly, the multiwell plate was coated with 20 μg/ml recombinant TNC-C in 100 μl of PBS overnight at 4° C., followed by blocking with 1% bovine serum albumin (BSA) in PBS overnight at 4° C. The phage library solution (5×10⁸ pfu in 100 μl of PBS-BSA) were incubated overnight at 4° C., followed by 6 washes with PBS+1% BSA+0.1% Tween 20 to remove non-specifically bound background phages, and by phage rescue and amplification in E. coli strain BLT5403 (Novagen, EMD Biosciences, MA, USA) (Lingasamy, P. et al., Biomaterials 119373. 2019). The subsequent rounds of selection were performed on Ni-NTA Magnetic Agarose Beads (QIAGEN, Hilden, Germany) coated with His-6X tagged TNC-C (30 μg/10 μl beads) at room temperature for 1 hour in 400 μl of PBS. The TNC-C immobilized beads were washed three times with PBS+1% BSA+0.1% NP40, followed by incubation of previous round phage (5×10⁸ pfu in 100 μl of PBS+1% BSA+0.1% NP40) to TNC-C coated beads for 1 hour at room temperature. The unbound/weakly bound (background) phages were removed by rinsing six times with PBS+1% BSA+0.1% NP40, and the bound phages were eluted with 1 ml of PBS+500 mM Imidazole+0.1% NP40.
# The recovered phage was tittered and amplified for a subsequent round of selection. […] RPARPAR phage on NRP-1-coated beads was used as a positive control (Teesalu et al., 2009). Phage clones displaying heptaglycine peptide (GGGGGGG, G7 (SEQ ID NO:20)) or insert less phage clones were used as negative controls.
row,Binder,TNC-C binding (fold G7 control phage)
1,"AGVGRLRRAKLAAALE [TNC-C-selected peptide phage clone 1, AGVGRLRRAKLAAALE]",3260 fold
2,"CRGVLRRAKLAAALE [TNC-C-selected peptide phage clone 2, CRGVLRRAKLAAALE]",5960 fold
3,"CSRRGILRAKPAAALE [TNC-C-selected peptide phage clone 4, CSRRGILRAKPAAALE]",4890 fold
4,"AGRGRLVRAKLAAALE [TNC-C-selected peptide phage clone 5, AGRGRLVRAKLAAALE]",5780 fold
5,"RRLVRVA [TNC-C-selected peptide phage clone 35, RRLVRVA]",1220 fold
6,"VGRVRFSRKLAAALE [TNC-C-selected peptide phage clone 30, VGRVRFSRKLAAALE]",3700 fold
7,"CQRMGVVGAKLAAALE [TNC-C-selected peptide phage clone 36, CQRMGVVGAKLAAALE]",3930 fold
8,RGRLRRVE [TNC-C-selected peptide phage clone 44 (Seq ID No. 37)],886 fold
9,"RGRLVRA [TNC-C-selected peptide phage clone 45, RGRLVRA]",737 fold
10,"GRLTRVR [TNC-C-selected peptide phage clone 46, GRLTRVR]",115 fold

# Biological target: T1, recombinant His-tagged tenascin-C C …
# Experiment: binding specificity, T7 peptide phage
# Procedure: (§3) To identify bispecific peptides that interact with both TNC-C and FN-EDB, cross screens were performed on both targets. During the first round of selection, microtiter plates coated with 20 μg/ml recombinant purified TNC-C were blocked with PBS containing 1% bovine serum albumin (BSA), followed by incubation with 5×10⁸ pfu of phages in PBS at 4° C. overnight, by washes to remove background, and by phage rescue and amplification in BLT5403 strain of E. coli (Novagen, EMD Biosciences, MA, USA) (Teesalu et al., Methods Enzymol. 503:35-56 (2012)). The following rounds of biopanning were carried on Ni-NTA Magnetic Agarose Beads (QIAGEN, Hilden, Germany) coated with hexahistidine-tagged FN-EDB (3 μg/μl beads) at room temperature. After 5 rounds of selection, a set of random clones was sequenced, and individual peptide-phage clones and control (G7 peptide-displaying or insertless) phages were incubated with FN-EDB and TNC-C-coated magnetic beads. RPARPAR phage (SEQ ID NO:5) and His-tagged NRP-1 b1b2 domain were used as positive control (Teesalu et al., Proc. Natl. Acad. Sci. U.S.A 106:16157-62 (2009)). To address the specificity of the peptide phage binding to the FN-EDB and TNC-C, the protein-coated beads were pre-incubated with 20 μg/ml blocking rabbit polyclonal antibodies.
# as §2
row,Binder,binding result
1,"PPRRGLIKLKTSSNTKENSVVASLRP (not fully specified (N-terminus); also: displayed on T7 phage capsid protein, 26-aa peptide at the C-terminus of the T7 major capsid protein, arisen by a frameshift; also called PL5 phage) [PL5 peptide displayed on T7 phage (PPRRGLIKLKTSSNTKENSVVASLRP)]",binds

# Biological target: T2, recombinant His-tagged fibronectin …
# Experiment: binding specificity, T7 peptide phage
# Procedure: as §3, §2
row,Binder,binding result
1,"PPRRGLIKLKTSSNTKENSVVASLRP (not fully specified (N-terminus); also: displayed on T7 phage capsid protein, 26-aa peptide at the C-terminus of the T7 major capsid protein, arisen by a frameshift; also called PL5 phage) [PL5 peptide displayed on T7 phage (PPRRGLIKLKTSSNTKENSVVASLRP)]",binds

# Biological target: T2, recombinant His-tagged fibronectin …
# Experiment: T7 peptide phage binding to recombinant Fn-EDB, fold over heptaglycine (G7) control phage
# Procedure: The first panning round were performed on Fn-EDB immobilized on Costar 96-Well enzyme-linked immunosorbent assay (ELISA) plate (#3590, Corning Life Sciences, Tewksbury, Mass., USA). The plate was coated with 20 μg/ml recombinant Fn-EDB in 100 μl of PBS overnight at 4° C., followed by blocking with 1% bovine serum albumin (BSA) in PBS overnight at 4° C. The phage library solution (5×10⁸ pfu in 100 μl of PBS-BSA) were incubated overnight at 4° C., followed by 6 wash with PBS+BSA+0.1% Tween 20 to remove non-specifically bound background phages, and by phage rescue and amplification in E. coli strain BLT5403 (Novagen, EMD Biosciences, MA, USA) (Teesalu et al., 2012). The consequent rounds of selection were performed on Ni-NTA Magnetic Agarose Beads (QIAGEN, Hilden, Germany) coated with His-6X tagged Fn-EDB (30 μg/10 μl beads) at room temperature for 1 hour in 400 μl of PBS. The Fn-EDB immobilized beads were washed three times with PBS+BSA+0.1% NP40, followed by incubation of previous round phage (5×10⁸ pfu in 100 μl of PBS+BSA+0.1% NP40) for 1 hour at room temperature. The unbound/weakly bound phage removed by rinsing six times with PBS+BSA+0.1% NP40, binding phage were eluted with 1 ml of PBS+500 mM Imidazole+0.1% NP40. The recovered phage was tittered and amplified for a subsequent round of selection.
# For cell-free binding studies using individually amplified phage clones; phage was incubated with Fn-EDB coated magnetic beads as described above. RPARPAR phage on NRP-1-coated beads was used as a positive control (Teesalu et al., 2009), Nucleolin (NCL) and Tenascin C—C domain (TNC-C) were used as negative control. Phage clones displaying heptaglycine peptide (GGGGGGG, G7 (SEQ ID NO:20)) or insert less phage clones were used as negative controls.
row,Binder,Fold over G7
1,"TKRKGKG [Fn-EDB-selected peptide phage clone 2, TKRKGKG]",58 fold
2,"GLGGRRIKLKTS [Fn-EDB-selected peptide phage clone 3, GLGGRRIKLKTS]",2060 fold
3,"GRRGRVIKLKTSEPPQ [Fn-EDB-selected peptide phage clone 4, GRRGRVIKLKTSEPPQ]",1180 fold
4,"GTRRRSRINLAAALE [Fn-EDB-selected peptide phage clone 10, GTRRRSRINLAAALE]",1560 fold
5,"KVKKRGA [Fn-EDB-selected peptide phage clone 17, KVKKRGA]",44 fold
6,"VHERTRI [Fn-EDB-selected peptide phage clone 24, VHERTRI]",1 fold
7,"RESRRGRVKLAAALE [Fn-EDB-selected peptide phage clone 33, RESRRGRVKLAAALE]",209 fold
8,TSKQNSR (also called phage PL2 peptide) [PL2 peptide displayed on T7 phage (TSKQNSR)],89 fold

# Biological target: T3, NRP-1 on NRP-1-positive cells (U87-MG glioma, PPC1 prostate carcinoma; U87-MG xenograft tumors) (UniProt O14786 22-923, limits assumed)
# T3 construct: whole, on cells; in xenografts mouse NRP-1 is also present
# Experiment: nanoparticle binding and uptake on cultured cells, confocal imaging
# Procedure: U87-MG, PPC1, and M21 cells cultured on glass coverslips were incubated with CF555-labeled AgNPs at 37° C. for 1 hour, followed by washing with medium to remove background AgNPs. Etching solution freshly diluted from 0.2 M stock solutions of Na₂S₂O₃ and K₃Fe(CN)₆ to 10 mM working concentration in PBS was applied to cells for 3 minutes, followed by PBS washes. The cells on coverslips were fixed with −20° C. methanol for 1 minute. The cell membrane was visualized by staining with Alexa Fluor 488-labeled wheat germ agglutinin (WGA) at 1:1000 at RT for 1 h. Nuclei were stained with 4′,6-diamidino-2-phenylindole (DAPI, Molecular Probes) at 1 μg/mL. Fluoromount-G (Electron Microscopy Sciences) medium was used to mount the coverslips on microscope slides for confocal imaging.
# Many cultured tumor cell lines overexpress NRP-1 and internalize peptides with active CendR motif. The uptake of CF555-labeled PL3-AgNPs in NRP-1-positive U87-MG glioma and PPC1 prostate carcinoma cells, and in NRP-1-negative M21 melanoma cells was investigated. The dye-labeled AgNP cores are well suited for fluorescence imaging as the AgNP increases the brightness of the surface-bound dye by about an order of magnitude by plasmonic enhancement. The AgNPs labeled with CF647 dye were coated with neutravidin (NA) and PEGylated, creating a stable colloid ready for coating with biotinylated peptides. […]
# T3 sequence (O14786 22-923 limits assumed): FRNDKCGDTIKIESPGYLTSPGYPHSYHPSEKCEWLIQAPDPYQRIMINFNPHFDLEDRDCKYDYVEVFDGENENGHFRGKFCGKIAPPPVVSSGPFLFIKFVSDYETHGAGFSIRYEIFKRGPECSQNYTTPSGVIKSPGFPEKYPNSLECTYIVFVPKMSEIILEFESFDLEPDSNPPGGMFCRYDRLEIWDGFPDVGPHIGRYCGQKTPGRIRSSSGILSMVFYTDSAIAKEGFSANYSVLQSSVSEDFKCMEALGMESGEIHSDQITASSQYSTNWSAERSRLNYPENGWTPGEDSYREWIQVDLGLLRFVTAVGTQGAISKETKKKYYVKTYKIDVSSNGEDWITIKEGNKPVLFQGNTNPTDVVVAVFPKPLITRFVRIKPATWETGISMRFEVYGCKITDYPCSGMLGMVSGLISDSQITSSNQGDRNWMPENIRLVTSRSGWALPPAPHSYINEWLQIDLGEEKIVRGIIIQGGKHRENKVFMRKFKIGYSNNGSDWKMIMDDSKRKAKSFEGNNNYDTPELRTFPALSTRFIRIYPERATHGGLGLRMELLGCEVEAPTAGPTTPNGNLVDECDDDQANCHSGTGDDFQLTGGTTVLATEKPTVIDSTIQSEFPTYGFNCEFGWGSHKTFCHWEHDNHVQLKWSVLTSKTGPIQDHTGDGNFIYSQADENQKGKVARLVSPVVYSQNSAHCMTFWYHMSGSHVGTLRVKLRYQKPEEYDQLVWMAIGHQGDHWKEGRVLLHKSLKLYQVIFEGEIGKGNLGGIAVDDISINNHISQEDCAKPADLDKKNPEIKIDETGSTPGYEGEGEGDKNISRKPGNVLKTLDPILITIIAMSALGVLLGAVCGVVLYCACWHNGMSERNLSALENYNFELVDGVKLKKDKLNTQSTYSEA
row,Binder,binding result
1,"AGRGRLVR (not fully specified (N-terminus); also: biotinylated, site not given here, bound to NeutrAvidin on dye-labeled PEGylated silver nanoparticles, Multivalent display on nanoparticles; also called PL3-AgNPs; AgNP-PL3) [PL3-functionalized silver nanoparticles (biotinylated PL3 peptide on NeutrAvidin-coated AgNPs)]",binds
